Consider one protein from PMC2836571 (Nucleic Acids Research, 2009).

This data set concerns the molecule itself. The experiment in a line: SEC.

The stoichiometry N is the number of molecules, sites or subunits per partner or assembly.

B1: ArdB from the E. coli K12 CP4-6 prophage (yafX) (natural protein, E. coli K12/CP4-6 prophage, UniProt P75676 1-152, looked up)
chain: MTTQTQHDLAPANQPEFELTVTPVPDEQRIDFWPQYFGAIPQWLLLEPHIFAWMDRFCEGYSGGIWSFYTLSNGGAFMSPEPDNDETWRLFNCLNGNDAQMSAEAAGIAVCLIAYSHHACRTECDAMTAHYYRLREYAMQHPEAHAILRIID
As to B1, the “stoichiometry N” value was 2.
